This test addresses T1, HLA-A*02:01 (human).
T1 construct: captured on streptavidin plates, detected with anti-β2m; also called peptide-receptive MHC molecules; MHC class I
The test can be described thus: UV-ligand exchange + anti-β2m ELISA; exchange yield grade: ≥10% +, ≥20% ++, ≥50 +++, ≥75% ++++. How it is done: The individual peptide-MHC complexes were produced by UV-ligand exchange, where a UV-sensitive peptide is cleaved upon UV-irradiation and exchanged with the peptide of interest as analyzed. Only peptide candidates that can effectively bind and stabilize the peptide-receptive MHC molecules prevent dissociation of the MHC complexes. To determine the yield of the exchange reaction, an ELISA was performed based on the detection of the light chain (β2m) of stabilized MHC complexes. The assay was performed as generally described in Rodenko et al. (Rodenko et al., 2006).
96 well MAXISorp plates (NUNC) were coated over night with 2 μg/ml streptavidin in PBS at room temperature, washed 4× and blocked for 1 h at 37° C. in 2% BSA containing blocking buffer. Refolded HLA-A*02:01/MLA-001 monomers served as standards, covering the range of 15-500 ng/ml. Peptide-MHC monomers of the UV-exchange reaction were diluted 100 fold in blocking buffer. Samples were incubated for 1 h at 37° C., washed four times, incubated with 2 μg/ml HRP conjugated anti-β2m for 1 h at 37° C., washed again and detected with TMB solution that is stopped with […]. Absorption was measured at 450 nm. Candidate peptides that show a high exchange yield (preferably higher than 50%, most preferred higher than 75%) are generally preferred for a generation and production of antibodies or fragments thereof, and/or T cell receptors or fragments thereof, as they show sufficient avidity to the MHC molecules and prevent dissociation of the MHC complexes.

Where only a bound is given, the exact number is not on record here.

Consider SQLEKPETA (also called SQLEKPETA) [altORF-026], for which the peptide exchange yield fell in the range of 50 to 75%.
Take IAAGVPNTDA (also called IAAGVPNTDA) [altORF-025]: the peptide exchange yield lay within 20 to 50%.
The result for ISVLNLSAI (also called ISVLNLSAI) [altORF-023] reads 20 to 50%.
Next, ALLDAEQSPVAL (also called ALLDAEQSPVAL) [altORF-014]: no less than 75%; VLSVSAVLGA (also called VLSVSAVLGA) [altORF-030]: 50 to 75%; HLDSMNVSI (also called HLDSMNVSI) [altORF-010]: no less than 75%.
Next, MLLPWLPKL (also called MLLPWLPKL) [altORF-017]: no less than 75%; ALLPHAPEAV (also called ALLPHAPEAV) [altORF-009]: 50 to 75%.
For VLWDLRPSSLI (also called VLWDLRPSSLI) [altORF-015], the peptide exchange yield is no less than 75%.
The result for SLYDVPVGA (also called SLYDVPVGA) [altORF-020] reads no less than 75%; that for FLLVPSPIWQL (also called FLLVPSPIWQL) [altORF-001], no less than 75%.
The result for LLWEFPSMA (also called LLWEFPSMA) [altORF-027] reads no less than 75%.
The result for FLDEGSLLRL (also called FLDEGSLLRL) [altORF-011] reads no less than 75%.
Regarding NLVMPLLHI (also called NLVMPLLHI) [altORF-013], the peptide exchange yield is 20 to 50%.
For the molecule VLISLPGKV (also called VLISLPGKV) [altORF-018], the peptide exchange yield lay in the range of 20 to 50%.
The result for ALLDVLVKL (also called ALLDVLVKL) [COLPDG-001] reads no less than 75%.
Next, KLLDFSTRI (also called KLLDFSTRI) [NUDCD2-001]: no less than 75%.
Next, KLWTSLVNL (also called KLWTSLVNL) [altORF-024]: no less than 75%; SLLDKLSGI (also called SLLDKLSGI) [altORF-008]: no less than 75%.
FVFISPSFL (also called FVFISPSFL) [altORF-019]: the peptide exchange yield was in the range of 50 to 75%.
As for LLIEVSEEL (also called LLIEVSEEL) [altORF-012], the peptide exchange yield is no less than 75%.
The result for GLEVLDALL (also called GLEVLDALL) [altORF-021] reads 20 to 50%; that for VVLPIVITL (also called VVLPIVITL) [altORF-029], no less than 75%; that for KMMTFFQGL (also called KMMTFFQGL) [altORF-016], no less than 75%.
The result for FASERPPSV (also called FASERPPSV) [altORF-031] reads no less than 75%.
The result for LLRLTLLPL (also called LLRLTLLPL) [altORF-028] reads 20 to 50%; that for TLTSLNILL (also called TLTSLNILL) [altORF-022], no less than 75%.

Source of the values: US20230241113A1 (IMMATICS BIOTECHNOLOGIES, published 2023).
